Results taken from patent publication US20210238271A1 (Janssen / Centocor, published 2021).

Assays:
[1] = target: T1, recombinant human TNFα (human, UniProt P01375 77-233, 125I label in the receptor-blocking assay only); experiment: cell-based or functional assay
[2] = target: T1, recombinant human TNFα; experiment: inhibition of 125I-TNFα binding to plate-coated p55-sf2, hybridoma supernatants
Description: (§1) Assay for Inhibition of TNF Binding to Receptor. […] Serial dilutions of the eight TNV cell supernatants were prepared in 96-well round-bottom plates using PBS/0.1% BSA as diluent. […] The mixture was preincubated for one hour at RT. […] After 2 hrs at RT, Optiplates were washed three times with PBS-Tween. […] of Microscint-20 was added and the cpm bound determined using the TopCount gamma counter.
A simple binding assay was done to determine whether the eight TNV mAbs contained in hybridoma cell supernatant were capable of blocking TNFα binding to receptor. The concentrations of the TNV mAbs in their respective cell supernatants were first determined by standard ELISA analysis for human IgG.

[3] = target: T1, recombinant human TNFα; experiment: competition: 125I-TNFα (5 ng/ml) preincubated with hybridoma supernatant, then bound to plate-coated p55-sf2, gamma counting; blocked partner p55-sf2
Description: Varying amounts of hybridoma cell supernatants containing known amounts of TNV mAb were preincubated with a fixed concentration (5 ng/ml) of ¹²⁵I-labeled TNFα. […] Although eight TNV mAb samples were tested in these experiments, for simplicity three of the mAbs that were shown by DNA sequence analyses to be identical to one of the other TNV mAbs (see Section 5.2.2) are not shown here. Each sample was tested in duplicate. The results shown are representative of two independent experiments.
as §1
A simple binding assay was done to determine whether the eight TNV mAbs contained in hybridoma cell supernatant were capable of blocking TNFα binding to receptor.

[4] = target: T2, human lymphotoxin (human, UniProt P01374 35-205, limits assumed); experiment: not described
T2 sequence (looked up): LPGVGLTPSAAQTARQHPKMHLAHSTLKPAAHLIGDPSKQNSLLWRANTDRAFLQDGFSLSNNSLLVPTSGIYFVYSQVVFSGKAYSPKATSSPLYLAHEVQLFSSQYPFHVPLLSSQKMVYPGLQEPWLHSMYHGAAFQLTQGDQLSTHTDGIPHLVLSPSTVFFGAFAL

B1: GenTNV148.26.12 (antibody, human IgG1, kappa, V domains shown)
VH: QVQLVESGGGVVQPGRSLRLSCAASGFIFSSYAMHWVRQAPGNGLEWVAFMSYDGSNKKYADSVKGRFTISRDNPKNTLYLQMNSLRAEDTAVYYCARDRGIAAGGNYYYYGMDVWGQGTTVTVSS
VL: EIVLTQSPATLSLSPGERATLSCRASQSVYSYLAWYQQKPGQAPRLLIYDASNRATGIPARFSGSGSGTDFTLTISSLEPEDFAVYYCQQRSNWPPFTFGPGTKVDIKR
notes: Totally human IgG1 kappa from hybridoma, tested as hybridoma supernatant; also called C420A
neutralizing TNFα bioactivity [1]: 4 fold | fold better at blocking TNF binding than TNV118 and TNV14 [2]: ~4 fold | IC50 (read off the curve) [3]: ~4 ng/mL

B2: GenTNV86.14.34 (antibody, human IgG1, kappa, V domains shown)
VH: QVQLVESGGGVVQPGRSLRLSCAASGFIFSSYAMHWVRQAPGNGLEWVAFMSYDGSNKKYADSVKGRFTISRDNPKNTLYLQMNSLRAEDTAVYYCARDRGIAAGGNYYYYGMDVWGQGTTVTVSS
VL: EIVLTQSPATLSLSPGERATLSCRASQSVYSYLAWYQQKPGQAPRLLIYDASNRATGIPARFSGSGSGTDFTLTISSLEPEDFAVYYCQQRSNWPPFTFGPGTKVDIKR
notes: Totally human IgG1 kappa from hybridoma, tested as hybridoma supernatant; Only the variable regions were compared; also called C417A
fold better at blocking TNF binding than TNV118 and TNV14 [2]: ~4 fold

B3: golimumab (antibody, human IgG1, kappa, V domains shown)
VH: QVQLVESGGGVVQPGRSLRLSCAASGFIFSSYAMHWVRQAPGNGLEWVAFMSYDGSNKKYADSVKGRFTISRDNSKNTLYLQMNSLRAEDTAVYYCARDRGIAAGGNYYYYGMDVWGQGTTVTVSS
VL: EIVLTQSPATLSLSPGERATLSCRASQSVYSYLAWYQQKPGQAPRLLIYDASNRATGIPARFSGSGSGTDFTLTISSLEPEDFAVYYCQQRSNWPPFTFGPGTKVDIKR
notes: Fully human IgG1 (G1m[z] allotype), kappa; also called SIMPONI
binding result [4]: no binding
